The source of these data is the nanobody polyreactivity screen of Harvey et al. (2022).

The data set can be described thus: yeast display, Sf9 membrane polyspecificity reagent, FACS + sequencing; frameworks hold sequencing errors. Summed up: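 Nanobodies came from a synthetic yeast display library in Saccharomyces cerevisiae BJ5465, induced with galactose for 36–48 hours and stained for 1 hour at 4 °C with 10% biotinylated, detergent-solubilized Sf9 membrane reagent. Cells were enriched on streptavidin microbeads and then FACS-sorted, with low and high (top ~1%) gates set on anti-HA fluorescence for expression and streptavidin fluorescence for reagent binding. Each polyreactivity label reflects the gate a clone came from. Genes were amplified by colony PCR, sequenced by MiSeq 2 × 250 and filtered by CDR length.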
On to “QVQLVESGGGLVQAGGSLRLSCAASGSIFEYYPMGWYRQAPGKERELVAAISWSGGSTYYADSVKGRFSISRDNAKNTVYFQMNSLKPEDTAVYYCAARGYWGQGTQVTVSS”, for which the “polyreactivity (PSR sort gate)” value is reported as “low polyreactivity”. Turning to “QVQLVESGGGLVQAGGSLRLSCAASGSIFFAYAMGWYRQAPGKERELVAAIRSGVRTNYADSVKGRFTISRDNAKNTVYIQMNSLKPEDTAVYYCNTDLSKFGHRVSLSGYDYWGQGTQVNVSS”, the “polyreactivity (PSR sort gate)” value was “low polyreactivity”. To “QVQLVESGGGLVQAGGSLRLSCAASGSIFFAYDMGWYRQAPGKERELVAAINFDGTSTYYADSVKGRFTISRDNAKNTVYLQMNTLKPEDTAVYYCNKRVSPTYKGQYVYWGQGTQVTVSS” belongs “low polyreactivity”; to “QVQLVESGGGLVQAGGSLRLSCAASGSIFFAYVMGWYRQAPGKERELDAVITYSGGSTYYADSVKGRFTISRDNAKNTVYLQMNSLKPEDTAVYDCAADETSALDDYWGQGTQVTVSS”, “low polyreactivity”. Take “QVQLVESGGGLVQAGGSLRLSCAASGSIFFDYGMGWYRQAPGKERELVATITRGTGSTYYADSVKGRFTISRDNAKNTVYLQMNSLKPEDTAVYYCAAGWHYVYRTPGFGYWGQGTQVTVSS”: the “polyreactivity (PSR sort gate)” value is listed as “high polyreactivity”.

With “QVQLVESGGGLVQAGGSLRLSCAASGSIFFEYAMGWYRQAPGKERELVAAISRRGGSTYYADSVKGRFTISRDNAKNTVYLQMNSLKPEDTAVYYCNKVNRASRGDYDYWGQGTQVTVSS”, the “polyreactivity (PSR sort gate)” value is listed as “high polyreactivity”. Take “QVQLVESGGGLVQAGGSLRLSCAASGSIFFEYAMGWYRQAPGKERELVASINRGGGSTYYADSVKGRFTISRDNAKNTVYLQMNSLIPEDTAVYYCAAQCKYRQSYLDYYWGQGTQVTVSS”: the “polyreactivity (PSR sort gate)” value is reported as “low polyreactivity”.

“QVQLVESGGGLVQAGGSLRLSCAASGSIFFGYGMGWYRQAPGKERELVATITTSGGTYYADSVKGRFTISRDNAKNTVYLQMNSLKPEDTAVYYCNKEDYGLYPYYVSVGYDYWGQGTQVTVSS”: the “polyreactivity (PSR sort gate)” value was “low polyreactivity”. In the case of “QVQLVESGGGLVQAGGSLRLSCAASGSIFFIYAMGWYRQAPGKERELVAAINDGGGSTYYADSVKGRFTISRDNAKNTVYLLMNSLKPEDTAVYYCAAEWSWGPYRYDYWGQGTQVTVSS”, the “polyreactivity (PSR sort gate)” value was “high polyreactivity”. Turning to “QVQLVESGGGLVQAGGSLRLSCAASGSIFFIYAMGWYRQAPGKERELVAAISWSDDSTYYADSVKGRFTISRDNAKNTVYLQMNSLKPEDTAVYYCAARYYIGYGHRTYGYDYWGQGTQVTVSS”, the “polyreactivity (PSR sort gate)” value is on record as “high polyreactivity”.

For the sequence “QVQLVESGGGLVQAGGSLRLSCAASGSIFFIYAMGWYRQAPGKERELVATITSGGSTYYADSVNGRFTISRDNAKNTVYLQMNSLKPEDTAVYYCAVDEYFAFDYWGQGTQVTVSS”, the “polyreactivity (PSR sort gate)” value is reported as “low polyreactivity”. To “QVQLVESGGGLVQAGGSLRLSCAASGSIFFIYDMGWYRQAPGKERELVADITSGGGSTFYADSVKGRFTISRDNAKNTVYLQMNRLKPEVSAVYYCATDDHDQPGGQLYITEVNYWGQGTQVTVSS” belongs “low polyreactivity”; to “QVQLVESGGGLVQAGGSLRLSCAASGSIFFLYAMGWYRQAPGKERELVAAISCSGGRTYYADSVKGRFTISRDNAKNTDYIQMNSLKPEDTAVYYCAASYSGRQDRYPHYDYWGQGTQVTVSS”, “low polyreactivity”.

Regarding “QVQLVESGGGLVQAGGSLRLSCAASGSIFFNNTKGWYRPAPGKERELVAAINWSGTSTYYADSVKGRFTISRDNAMNTVYLQMNSLKPEDTEVYYCAADVVRSNFDGTFLYDYDYWGLGTQVTVSS”, the “polyreactivity (PSR sort gate)” value was “low polyreactivity”. To “QVQLVESGGGLVQAGGSLRLSCAASGSIFFNTMGWYRQAPGKERELVAAINTSGGRTYYADSVKGRFTISRDNAKNTVYLQMNSLKPEDTAVYYCATTAYSQYYTYYYWGQGTQVTVSS” belongs “high polyreactivity”. To “QVQLVESGGGLVQAGGSLRLSCAASGSIFFPNAMGWYRQAPGKERELVAAITSTSTNYADSVKGRCTISRDNAKNTVYLQMNSLKPEDTAVYYCAADGEFRRAWYEGDYWGQGTQVTVSS” belongs “low polyreactivity”.
